Assay results as given in paper PMC7088233.
pKd: −log10 of the molar value.

Legend:
[1] = molecular target: recombinant glycosylated HIV-1 IIIB gp120 (baculovirus) (HIV-1 IIIB) (UniProt P04578)
[2] = molecular target: recombinant glycosylated HIV-1 IIIB gp120 (baculovirus) (HIV-1 IIIB) (UniProt P04578); experiment: SPR

Substance | IC50 of neutralization of HIV-1 (derived from pNL4-3) in Jurkat cells [1] [nM] | Ka [2] [M⁻¹] | pKd [2] | koff [2] [s⁻¹]
native KAA-1 lectin from Kappaphycus alvarezii (natural protein) | 9.2 |  |  | 
native KAA-2 lectin from Kappaphycus alvarezii (natural protein) | 7.3 |  |  | 
His-tagged recombinant KAA-1 (Kappaphycus alvarezii agglutinin 1) (natural protein) | 12.9 |  |  | 
recombinant KAA-1 after removal of the His tag by thrombin (natural protein) |  | 1.61e+09 | 9.21 | 0.000529
